Molecular target: the molecule itself
Assay: thioflavin T fluorescence

B1: G175S PMEL CAF domain (residues 148-223) (domain or fragment)
chain: SFVYVWKTWGQYWQVLGGPVSGLSIGTSRAMLGTHTMEVTVYHRRGSRSYVPLAHSSSAFTITDQVPFSVSVSQLR
B1 was tested, and the “polymerisation (ThT fluorescence) relative to the wild type” value was roughly 4 fold.

Reference: paper PMC12219675 (Nature Communications, 2025)
